No end group written: not given here.
T1: HLA-DR13 molecule (DRB1*1301) (human)
T1 chain 1: not shown
T1 chain 2: not shown

T2: HLA-DRB5*0101 molecule (human)
T2 chain 1: not shown
T2 chain 2: not shown

T3: HLA-DR4 molecule (DRB1*0401) (human)
T3 chain 1: not shown
T3 chain 2: not shown

T4: HLA-DR11 molecule (DRB1*1101) (human)
T4 chain 1: not shown
T4 chain 2: not shown

T5: HLA-DR1 molecule (DRB1*0101) (human)
T5 chain 1: not shown
T5 chain 2: not shown

T6: HLA-DR15 molecule (DRB1*1501) (human)
T6 chain 1: not shown
T6 chain 2: not shown

T7: HLA-DR7 molecule (DRB1*0701) (human)
T7 chain 1: not shown
T7 chain 2: not shown

T8: HLA-DRB4*0101 molecule (human)
T8 chain 1: not shown
T8 chain 2: not shown

T9: HLA-DRB3*0101 molecule (human)
T9 chain 1: not shown
T9 chain 2: not shown

T10: HLA-DR3 molecule (DRB1*0301) (human)
T10 chain 1: not shown
T10 chain 2: not shown


Experiments:
[1] = target: T1, HLA-DR13 molecule (DRB1*1301) (human); assay: competition ELISA vs biotin-B1 21-36
[2] = target: T2, HLA-DRB5*0101 molecule (human); assay: competition ELISA vs biotin-HA 306-318
[3] = target: T3, HLA-DR4 molecule (DRB1*0401) (human); assay: competition ELISA vs biotin-HA 306-318
[4] = target: T4, HLA-DR11 molecule (DRB1*1101) (human); assay: competition ELISA vs biotin-HA 306-318
[5] = target: T5, HLA-DR1 molecule (DRB1*0101) (human); assay: competition ELISA vs biotin-HA 306-318
[6] = target: T6, HLA-DR15 molecule (DRB1*1501) (human); assay: competition ELISA vs biotin-A3 152-166
[7] = target: T7, HLA-DR7 molecule (DRB1*0701) (human); assay: competition ELISA vs biotin-YKL
[8] = target: T8, HLA-DRB4*0101 molecule (human); assay: competition ELISA vs biotin-E2/E168
[9] = target: T9, HLA-DRB3*0101 molecule (human); assay: competition ELISA vs biotin-Lol 191-210
[10] = target: T10, HLA-DR3 molecule (DRB1*0301) (human); assay: competition ELISA vs biotin-MT 2-16

Row | Binder | IC50 [1] [nM] | IC50 [2] [nM] | IC50 [3] [nM] | IC50 [4] [nM] | IC50 [5] [nM] | IC50 [6] [nM] | IC50 [7] [nM] | IC50 [8] [nM] | IC50 [9] [nM] | IC50 [10] [nM]
1 | DLLIRCINCQKPLCPEEKQRHL (modifications not checked) [E6(105-126)] | 5000 | 30 | 3750 | 5000 | 1750 | 4000 | – | – | – | –
2 | EKQRHLDKKQRFHNIRGRWT (modifications not checked) [E6(121-140)] | 1130 | 85 | – | 350 | 125 | – | 200 | – | – | –
3 | MHGDTPTLHEYMLDLQPETT (modifications not checked) [E7(1-20)] | – | – | – | 1750 | 2500 | 125 | – | 4 | 35 | –
4 | TLHEYMLDLQPETTDLYCYEQ (modifications not checked) [E7(7-27)] | 7500 | – | 60 | 600 | – | 1770 | – | 375 | 8.5 | 560
5 | DLYCYEQLNDSSEEEDEIDG (modifications not checked) [E7(21-40)] | – | – | 1750 | – | – | 5300 | – | – | – | 4600
6 | TERVRLVTRHIYNREE (not fully specified) [B1 21-36 (nonbiotinylated)] | 330 | – | – | – | – | – | – | – | – | –
7 | KCDSTLRLCVQSTHV (modifications not checked) [E7(60-74)] | – | 200 | – | 7000 | 5000 | – | 900 | – | – | –
8 | LRLCVQSTHVDIRTLEDLLMGTL (modifications not checked) [E7(65-87)] | – | – | 650 | – | 650 | 470 | 900 | – | 850 | 450
9 | TELQTTIHDIILECV (modifications not checked) [E6 24-38] | – | – | – | – | 425 | 950 | 1500 | – | – | –
10 | MHQKRTAMFQDPQERPRKLPQL (modifications not checked) [E6(1-22)] | – | – | – | – | – | – | – | – | – | 3500
11 | QQLLRREVYDFAFRD (modifications not checked) [E6 42-56] | 375 | – | – | 6000 | – | 3250 | – | 55 | – | –
12 | RDLCIVYRDGNPYAV (modifications not checked) [E6 55-69] | – | – | – | 250 | 1500 | 55 | – | – | – | –
13 | FYSKISEYRHYCYSL (modifications not checked) [E6 76-90] | 225 | 1050 | – | – | 125 | – | – | – | – | –
14 | SEYRHYCYSLYGTTL (modifications not checked) [E6 81-95] | – | 2500 | – | 725 | 10 | – | – | – | – | –
15 | RHYCYSLYGTTLEQQ (modifications not checked) [E6 84-98] | – | 900 | – | 7000 | – | – | 3250 | – | – | –
16 | SLYGTTLEQQYNKPL (modifications not checked) [E6 89-103] | – | 200 | 5000 | – | 125 | 53 | 1500 | – | – | –
17 | TTLEQQYNKPLCDLL (modifications not checked) [E6 93-107] | – | 325 | – | – | – | 18 | 7750 | – | – | –
18 | QQYNKPLCDLLIRCI (modifications not checked) [E6 97-111] | – | 5500 | 325 | – | 575 | 4000 | – | – | – | 1230
19 | HLDKKQRFHNIRGR (modifications not checked) [E6 124-138] | – | 75 | – | 475 | 10 | – | – | – | – | –
20 | QRFHNIRGRWTGRCM (modifications not checked) [E6 130-144] | – | 75 | – | 115 | 4 | – | 950 | – | – | –
21 | PTLHEYMLDLQPETT (modifications not checked) [E7 6-20] | – | – | 175 | 1500 | 750 | 675 | – | 200 | 90 | –
22 | ERPRKLPQLCTELQTTIHDII (modifications not checked) [E6(14-34)] | – | – | – | – | 3500 | 800 | 225 | – | 1450 | 550
23 | LDLQPETTDLYCYEQ (modifications not checked) [E7 13-27] | – | – | 4250 | 3500 | 4000 | – | – | – | – | 3500
24 | LRLCVQSTHVDIRTL (modifications not checked) [E7 65-79] | – | – | – | – | 750 | – | 600 | – | – | –
25 | LCVQSTHVDIRTLED (modifications not checked) [E7 67-81] | – | – | 7500 | – | 7000 | 950 | 1500 | – | – | –
26 | RTLEDLLMGTLGIVC (modifications not checked) [E7 77-91] | – | 700 | – | – | – | – | 55 | – | – | –
27 | MGTLGIVCPICSQKP (modifications not checked) [E7 84-98] | – | 90 | – | – | – | 425 | 1250 | 1750 | – | –
28 | LRREVYDFAFRDLCIVYRDGNPY (modifications not checked) [E6(45-67)] | – | 65 | – | 125 | – | 225 | 2330 | – | 2500 | –
